T1: NatA complex (Naa15-Naa10ΔC-His6) (Chaetomium thermophilum)
T1 chain 1: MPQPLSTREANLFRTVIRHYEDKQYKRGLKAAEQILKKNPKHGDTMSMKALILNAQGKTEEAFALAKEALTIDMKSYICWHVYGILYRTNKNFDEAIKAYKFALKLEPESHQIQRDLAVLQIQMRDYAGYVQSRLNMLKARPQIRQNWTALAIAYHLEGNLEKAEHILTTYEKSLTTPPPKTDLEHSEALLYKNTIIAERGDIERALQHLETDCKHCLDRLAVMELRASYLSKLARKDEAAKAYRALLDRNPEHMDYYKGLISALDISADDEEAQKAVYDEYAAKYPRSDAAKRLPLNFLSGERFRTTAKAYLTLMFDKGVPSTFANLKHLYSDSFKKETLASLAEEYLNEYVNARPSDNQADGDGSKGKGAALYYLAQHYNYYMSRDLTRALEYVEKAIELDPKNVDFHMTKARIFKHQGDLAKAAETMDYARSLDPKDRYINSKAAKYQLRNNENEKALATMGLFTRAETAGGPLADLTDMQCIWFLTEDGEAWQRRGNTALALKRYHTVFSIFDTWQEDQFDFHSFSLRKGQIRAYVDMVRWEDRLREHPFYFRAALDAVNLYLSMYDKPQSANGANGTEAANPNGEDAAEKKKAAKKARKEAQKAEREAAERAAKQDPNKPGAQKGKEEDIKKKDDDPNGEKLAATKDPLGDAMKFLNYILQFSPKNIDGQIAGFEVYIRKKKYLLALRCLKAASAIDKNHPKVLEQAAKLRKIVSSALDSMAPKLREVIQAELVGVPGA
T1 chain 2: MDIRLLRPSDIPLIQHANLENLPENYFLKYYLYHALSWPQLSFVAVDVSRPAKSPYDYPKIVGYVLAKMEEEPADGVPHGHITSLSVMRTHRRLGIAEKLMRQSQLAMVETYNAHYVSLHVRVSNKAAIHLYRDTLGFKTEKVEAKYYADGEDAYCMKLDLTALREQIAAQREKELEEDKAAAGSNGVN


What was measured:
[1] = target: NatA complex (His6-Naa15-Naa10ΔC-His6) (Chaetomium thermophilum); test: SEC-MALS; NatA-HypK complex (0.2 mg) on Superdex 200 10/300 in SEC buffer coupled to MALS
[2] = target: T1, NatA complex (Naa15-Naa10ΔC-His6); test: ITC; HypK-StrepII variants (100-400 μM) in the syringe, preformed NatA (Naa15-Naa10ΔC-His6, 10-40 μM) in the cell; 25 °C; 20 mM HEPES pH 7.5, 150 mM NaCl, 10 mM MgCl2, 10 mM KCl; single-site model; triplicates
[3] = target: T1, NatA complex (Naa15-Naa10ΔC-His6); test: ITC

| Kd [3] [µM] | Molecule | other results |
| --- | --- | --- |
| – | His6-HypK (full length) (natural protein) | stoichiometry N [1]: 1 |
| – | HypK-StrepII (full length) (natural protein) | Kd [2]: 0.0383 µM |
| 0.0469 | HypK-THB-StrepII (domain or fragment) GAMGKVDPADVNLLVEELELSKAKATELLKAHDGDAIKAMKAYIQPAFGSGSGSWSHPQFEK | – |
| 0.0286 | HypKΔN50-StrepII (domain or fragment) MAPAREVDQEAVKNAMSALSGASTEKKEVKKVKVDPADVNLLVEELELSKAKATELLKAHDGDAIKAMKAYIQPAF | – |

— PMC5467210 (2017)
